Paper PMC6224480, “Insights into Kinesin-1 Activation from the Crystal Structure of KLC2 Bound to JIP3” (Structure(London, England:1993), 2018)
*: point of attachment. FITC = O=C1OC2(c3ccc(O)cc3Oc3cc(O)ccc32)c2ccc(NC(=S)*)cc21

Assays:
Details in all cases: both partners purified
[1] = molecular target: KLC2^TPR-myc third TPR1 mutant, printed as L220Y in Table S2 (mouse, UniProt O88448 191-480); assay: ITC; FITC-CSTN-WD2 peptide as titrant (380 uM) into wild-type or mutant KLC2^TPR-myc (44-50 uM) in the cell; 25 C; 0.1 M NaCl, 25 mM HEPES, 1 mM TCEP, pH 7.5; 2-3 experiments globally fitted with the model A + B -> AB; apparent stoichiometry Napp
Chain of KLC2^TPR-myc third TPR1 mutant, printed as L220Y in Table S2 (O88448 other isoform, or with tags, fused parts or gaps L220Y): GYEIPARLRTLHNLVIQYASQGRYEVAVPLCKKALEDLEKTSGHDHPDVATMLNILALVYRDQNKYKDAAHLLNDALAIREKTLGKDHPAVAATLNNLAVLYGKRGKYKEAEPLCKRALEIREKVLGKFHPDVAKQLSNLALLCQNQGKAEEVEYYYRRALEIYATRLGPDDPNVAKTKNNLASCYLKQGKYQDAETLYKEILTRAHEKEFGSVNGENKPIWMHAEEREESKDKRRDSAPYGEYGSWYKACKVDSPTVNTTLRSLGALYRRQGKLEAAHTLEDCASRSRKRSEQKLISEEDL

KLC2^TPR-myc (wild type) [2] = molecular target: T1, KLC2^TPR-myc (wild type) (murine, UniProt O88448 190-479); assay: fluorescence polarisation; competition: FITC-LFP peptide (300 nM) and KLC2^TPR-myc fixed at 21 μM, 2-fold serial dilutions of unlabelled CSTN-WD1 peptide or Trp-JIP3^LZ; 0.1 M NaCl, 25 mM HEPES, 5 mM MgCl2, 1 mM TCEP, pH 7.5; competitive inhibition model
T1 construct: kinesin light chain 2 (KLC2), murine, TPR domain, residues 191-480; also called KLC2^TPR-myc protein; source: E. coli BL21(DE3) Rosetta, purified (His-trap, ULP1 cleavage, SEC); not shown: His6-SUMO, N-terminal, cleaved
T1 sequence (O88448 190-479): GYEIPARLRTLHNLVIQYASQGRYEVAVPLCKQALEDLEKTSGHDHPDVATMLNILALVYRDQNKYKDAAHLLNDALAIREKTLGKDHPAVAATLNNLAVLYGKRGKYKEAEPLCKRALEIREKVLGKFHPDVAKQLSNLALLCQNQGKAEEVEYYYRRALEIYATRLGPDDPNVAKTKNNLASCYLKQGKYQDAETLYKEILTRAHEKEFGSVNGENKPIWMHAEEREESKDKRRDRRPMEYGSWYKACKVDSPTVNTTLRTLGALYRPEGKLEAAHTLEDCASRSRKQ

[3] = molecular target: T2, KLC2^TPR-myc Thr^200Asp mutant (murine, UniProt O88448 190-479, Thr^200Asp); assay: ITC; wild-type or mutant KLC2^TPR-myc (44-50 μM) in the cell; Trp-JIP3^LZ (dimer 297-330 μM) or FITC-CSTN-WD2 peptide (380 μM) as titrant; 0.1 M NaCl, 25 mM HEPES, 1 mM TCEP, pH 7.5
T2 construct: kinesin light chain 2 (KLC2), murine, TPR domain, residues 191-480; source: E. coli BL21(DE3) Rosetta, purified (His-trap, ULP1 cleavage, SEC); not shown: His6-SUMO, N-terminal, cleaved
T2 sequence (O88448 other isoform, or with tags, fused parts or gaps Thr^200Asp | Thr^200Asp | mutant): as the sequence (O88448 190-479) above, with T10D counted along it

[4] = molecular target: T3, KLC2^TPR-myc Tyr^208Ala mutant (murine, UniProt O88448 190-479, Tyr^208Ala); assay: as above
T3 construct: kinesin light chain 2 (KLC2), murine, TPR domain, residues 191-480; source: E. coli BL21(DE3) Rosetta, purified (His-trap, ULP1 cleavage, SEC); not shown: His6-SUMO, N-terminal, cleaved
T3 sequence (O88448 other isoform, or with tags, fused parts or gaps Tyr^208Ala | Tyr^208Ala | mutant): as the sequence (O88448 190-479) above, with Y18A counted along it

KLC2^TPR-myc (wild type) [5] = molecular target: T1, KLC2^TPR-myc (wild type); assay: as above
[6] = molecular target: T4, KLC2^TPR-myc Gln^223Lys mutant (murine, UniProt O88448 190-479, Gln^223Lys); assay: as above
T4 construct: kinesin light chain 2 (KLC2), murine, TPR domain, residues 191-480; source: E. coli BL21(DE3) Rosetta, purified (His-trap, ULP1 cleavage, SEC); not shown: His6-SUMO, N-terminal, cleaved
T4 sequence (O88448 other isoform, or with tags, fused parts or gaps Gln^223Lys | Gln^223Lys | mutant): as the sequence (O88448 190-479) above, with Q33K counted along it

KLC2^TPR-myc (wild type) [7] = molecular target: T1, KLC2^TPR-myc (wild type); assay: fluorescence polarisation; FITC-LFP peptide (300 nM) with 2-fold dilutions of KLC2^TPR-myc; 0.1 M NaCl, 25 mM HEPES, 5 mM MgCl2, 1 mM TCEP, pH 7.5; 1 hour, room temperature; fluorescence anisotropy

B1: FITC-labeled CSTN(WD2) peptide (FITC-TRQLEWDDSTL-COOH) (peptide)
peptide: {FITC}-TRQLEWDDSTL-OH
notes: tryptophan-acidic peptide (WD2 motif) derived from calsyntenin-1; also called FITC-CSTN-WD2 peptide; source: synthetic peptide; bought: Biomatik
Which results are given for B1?
Ka [1]: 739000 M⁻¹; stoichiometry N [1]: 0.71

B2: N-terminally acetylated CSTN-WD1 peptide (Ac-GKENEMDWDDSALTITVN-COOH) (peptide)
peptide: Ac-GKENEMDWDDSALTITVN-OH
notes: tryptophan-acidic motif WD1 of calsyntenin-1; also called calsyntenin-1 peptide; tryptophan-acidic peptide; source: synthetic peptide (Peptide Synthesis Laboratory, Francis Crick Institute, UK)
B2 was tested. Which Ki (KLC2^TPR-myc (wild type) [2]) did it give?
Its Ki is 11.3 µM.

B3: FITC-labeled CSTN(WD2) peptide (FITC-TRQLEWDDSTL-COOH) (peptide)
peptide: {FITC}-TRQLEWDDSTL-OH
notes: tryptophan-acidic motif WD2 of calsyntenin-1; also called FITC-CSTN-WD2 peptide; tryptophan-acidic cargo peptide; source: synthetic peptide, bought: Biomatik
With B3 as the binder, how does the “stoichiometry N” value [3] read?
The value was about 0.7.

And the “stoichiometry N” value [4]?
Its value is about 0.7.

And the “stoichiometry N” value (KLC2^TPR-myc (wild type) [5])?
Its value is about 0.7.

What about the “stoichiometry N” value [6] of the same binder?
The value was about 0.7.

B4: FITC-labeled KLC2 LFP motif peptide (FITC-DSLDDLFPNEDEQS-COOH) (peptide)
peptide: {FITC}-DSLDDLFPNEDEQS-OH
notes: LFP motif (KLC2 residues 167-169) of the acidic linker of kinesin light chain 2; also called FITC-LFP peptide; FITC-labelled LFP-motif peptide; source: synthetic peptide, bought: Biomatik
How did the Kd (KLC2^TPR-myc (wild type) [7]) turn out when B4 was run?
Its Kd is 37 µM.
